The source of these data is article PMC5548840, “The FAD synthetase from the human pathogen Streptococcus pneumoniae: a bifunctional enzyme exhibiting activity-dependent redox requirements” (Scientific Reports, 2017).

The target in data set [1] is T1, SpnFADS (Streptococcus pneumoniae, UniProt A0A0H2UPY5).
T1 construct: gene SP_1110; full length (modules 1-186 FMNAT, 187-305 RFK); N-terminal His6-PreScission tag removed; codon-optimised synthetic gene in modified pET-15b, E. coli BL21 Star (DE3); 34,521 Da; mainly monomer
T1 sequence (A0A0H2UPY5 entry or part of it): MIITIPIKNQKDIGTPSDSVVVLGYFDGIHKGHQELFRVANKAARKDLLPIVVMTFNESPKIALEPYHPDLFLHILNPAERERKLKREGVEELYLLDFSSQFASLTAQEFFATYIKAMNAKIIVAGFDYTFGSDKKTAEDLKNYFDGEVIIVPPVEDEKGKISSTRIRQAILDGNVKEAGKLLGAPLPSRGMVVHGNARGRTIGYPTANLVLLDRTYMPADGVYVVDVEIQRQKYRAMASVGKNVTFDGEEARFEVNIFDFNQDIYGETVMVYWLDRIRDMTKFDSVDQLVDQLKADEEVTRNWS
Briefly: isothermal titration calorimetry. It counts as binding. To be noted: 20 mM PIPES pH 7.0, 20 °C, free enzyme. From the text: isothermal titration calorimetry on SpnFADS

Data set [2] concerns the target T1, SpnFADS. Briefly: HPLC of flavin products, steady-state FMNAT activity. As to conditions: 20 mM PIPES pH 7.0, 25 °C. It counts as biochemical. From the text: HPLC of flavin products, steady-state FMNAT activity on SpnFADS
Data set [3] addresses T1, SpnFADS. The experiment in a line: HPLC of flavin products, steady-state RFK activity. It is filed as biochemical. To be noted: saturating ATP (412 μM), 20 mM PIPES pH 7.0, 25 °C, 0.8 mM MgCl2, no dithionite. An excerpt: HPLC of flavin products, steady-state RFK activity on SpnFADS
Data set [4] in a line: SEC; 20 uM pure SpnFADS on a calibrated Superdex 200 10/300 GL column, 50 mM Tris/HCl, pH 8.0, 150 mM NaCl; freshly purified fraction considered as monomeric.
Data set [5] deals with FAD synthetase from Streptococcus pneumoniae (SpnFADS) (Streptococcus pneumoniae). The experiment in a line: cross-linking; pure SpnFADS in 50 mM KHPO4, pH 8.0, with BS3 crosslinker for 2 h at 4 °C, then 15% SDS-PAGE.
Data set [6] has the same target. Briefly: atomic force microscopy; 0.5 uM SpnFADS on mica, no ligand; 20 mM PIPES, pH 6.0, 2 mM DTT, 0.8 mM MgCl2, room temperature.
Data set [7] shares this target. Briefly: atomic force microscopy; 0.5 uM SpnFADS on mica, with 250 uM ADP; 20 mM PIPES, pH 6.0, 2 mM DTT, 0.8 mM MgCl2, room temperature.
Data set [8] has the same target. Briefly: atomic force microscopy; 0.5 uM SpnFADS on mica, with 250 uM ATP; 20 mM PIPES, pH 6.0, 2 mM DTT, 0.8 mM MgCl2, room temperature.
The target is the same in data set [9]. Briefly: atomic force microscopy; 0.5 uM SpnFADS on mica, with 250 uM ATP and 50 uM RF; 20 mM PIPES, pH 6.0, 2 mM DTT, 0.8 mM MgCl2, room temperature.
For data set [10] the target is unchanged. The experiment in a line: atomic force microscopy; 0.5 uM SpnFADS on mica, with 250 uM ADP and 50 uM FMN; 20 mM PIPES, pH 6.0, 2 mM DTT, 0.8 mM MgCl2, room temperature.
The target is the same in data set [11]. Briefly: atomic force microscopy; 0.5 uM SpnFADS on mica, with 250 uM ATP and 50 uM FMN; 20 mM PIPES, pH 6.0, 2 mM DTT, 0.8 mM MgCl2, room temperature.
Data set [12] has the same target. Briefly: atomic force microscopy; 0.5 uM SpnFADS on mica, with 50 uM FAD and 250 uM PPi; 20 mM PIPES, pH 6.0, 2 mM DTT, 0.8 mM MgCl2, room temperature.
[13] abbreviates: 0.8 mM MgCl2, 4 mM sodium dithionite, 10 mM glucose, 0.5 U/mL glucose oxidase, reduced flavin, single site (FMNAT).

With `Nc1ncnc2c1ncn2[C@@H]1O[C@H](COP(=O)(O)OP(=O)(O)O)[C@@H](O)[C@H]1O` [ADP], the “K d (μM)” value on SpnFADS [1] (no MgCl2, single site) is 4.1 ± 20% μM.

For the compound `Nc1ncnc2c1ncn2[C@@H]1O[C@H](COP(=O)(O)OP(=O)(O)OP(=O)(O)O)[C@@H](O)[C@H]1O` [ATP], the “K d (μM)” value on SpnFADS [1] (0.8 mM MgCl2, single site) was 9.4 ± 20% μM. For the same compound, the “K m ^ATP (μM)” value on SpnFADS [2] (FMN 27.7 µM for kcat, 0.8 mM MgCl2, 3 mM sodium dithionite) is recorded as 31.6 ± 10% µM.

Consider `Cc1cc2nc3c(=O)[nH]c(=O)nc-3n(C[C@H](O)[C@H](O)[C@H](O)CO)c2cc1C` [RF], for which the “K m ^RF (μM)” value at SpnFADS [3] is 0.9 ± 10% μM.

Consider `Cc1cc2c(cc1C)N(C[C@H](O)[C@H](O)[C@H](O)COP(=O)(O)OP(=O)(O)OC[C@H]1O[C@@H](n3cnc4c(N)ncnc43)[C@H](O)[C@@H]1O)c1[nH]c(=O)[nH]c(=O)c1N2` [reduced FAD], for which, at SpnFADS [1] (setting [13]), the “K d (μM)” value amounted to 12.5 ± 20% μM.

In the case of `Cc1cc2c(cc1C)N(C[C@H](O)[C@H](O)[C@H](O)COP(=O)(O)O)c1[nH]c(=O)[nH]c(=O)c1N2` [reduced FMN], the K d on SpnFADS [1] (setting [13]) is recorded as 0.8 ± 20% μM. In addition, at SpnFADS [2] (saturating ATP (252 μM), 0.8 mM MgCl2, 3 mM sodium dithionite (flavin reduced)), the “K m ^RF (μM)” value is recorded as 9.8 ± 10% µM.

Take “FAD synthetase from Streptococcus pneumoniae (SpnFADS)”: in data set [4], the “percent of the protein in the main peak at ~14.5 mL (monomers or dimers)” value was “∼96% of the protein”.

The compound “FAD synthetase from Streptococcus pneumoniae (SpnFADS) (enzyme)” had a stoichiometry N in [5] of 2. In data set [6], this compound gave a % of features that are dimers of 3%, a % of features that are monomers of 97%, a % of molecules in dimers of 6% and a % of molecules in monomers of 94%. Besides, in data set [7], the % of features that are dimers turned out to be 7%, the % of features that are monomers was 60%, the % of features that are tetramers turned out to be 20% and the % of features that are trimers is 13%. In data set [7], the % of molecules in dimers turned out to be 7%, the % of molecules in monomers was 31%, the % of molecules in tetramers turned out to be 47% and the % of molecules in trimers is 20%. In [8], this compound returned a % of features that are dimers of 12%, a % of features that are monomers of 70%, a % of features that are trimers of 18% and a % of molecules in dimers of 16%. Further, in [8], the % of molecules in monomers worked out at 47% and the % of molecules in trimers was found to be 37%. In data set [9], this compound yielded a % of features that are dimers of 20%, a % of features that are monomers of 73%, a % of features that are trimers of 7% and a % of molecules in dimers of 30%. Also, in data set [9], the % of molecules in monomers came to 54% and the % of molecules in trimers stood at 16%. Also, in [10], the % of features that are dimers was 15%, the % of features that are monomers is 63%, the % of features that are trimers is 22% and the % of molecules in dimers stood at 19%. In data set [10], the % of molecules in monomers is 40% and the % of molecules in trimers was determined as 41%. In [11], this compound had a % of features that are dimers of 7%, a % of features that are monomers of 73%, a % of features that are trimers of 20% and a % of molecules in dimers of 9%. In [11], the % of molecules in monomers was 50% and the % of molecules in trimers was 41%. In data set [12], this compound came in with a % of features that are dimers of 7%, a % of features that are monomers of 73%, a % of features that are trimers of 20% and a % of molecules in dimers of 9%. Further, in data set [12], the % of molecules in monomers was 50% and the % of molecules in trimers worked out at 41%.
